The target of experiment [1] is double His-tagged RAD-TPX2_((7–43)) Y10A (Pyrococcus furiosus | human) (UniProt O74036). The experiment is described as follows: BLI; Octet RED96, Anti-Penta-HIS biosensors loaded with double His-tagged RAD-TPX2 proteins (1 μM), untagged Aurora A wild type 0-500 or 5000 nM as analyte; 50 mM HEPES pH 7.4, 500 mM NaCl, 100 mM Mg(CH3COO)2, 0.5 mM ATP, 0.5 mM TCEP, 0.05% P20; 1:1 model. (In general: BLI is a label-free optical method that tracks binding on a fibre tip over time.)

Experiment [2] concerns the target double His-tagged RAD-TPX2_((7–43)) Y8A (Pyrococcus furiosus | human) (UniProt O74036). Described as above.
The target of experiment [3] is double His-tagged RAD-TPX2_((7–43)) D11A (Pyrococcus furiosus | human) (UniProt O74036). The description is as above.
The target of experiment [4] is double His-tagged RAD-TPX2_((7–43)) F35A (Pyrococcus furiosus | human) (UniProt O74036). Described as above.
Experiment [5] deals with double His-tagged RAD-TPX2_((7–43)) F19A (Pyrococcus furiosus | human) (UniProt O74036). The experiment is described as above.
The target in experiment [6] is double His-tagged RAD-TPX2_((7–43)), wild-type TPX2 sequence (Pyrococcus furiosus | human) (UniProt O74036). Described as above.
Experiment [7] has as its target double His-tagged RAD-TPX2_((7–43)) F16A (Pyrococcus furiosus | human) (UniProt O74036). The experiment is described as above.
In experiment [8] the target is double His-tagged RAD-TPX2_((7–43)) W34A (Pyrococcus furiosus | human) (UniProt O74036). The experiment is described as above.
Experiment [9] addresses Alexa Fluor 488-labeled cRAD-CK2β_((186–200)) (Pyrococcus furiosus | human) (UniProt O74036). The experiment is described as follows: fluorescence polarisation; fluorescence anisotropy, direct titration of kinase (CK2α 2 nM-2 μM; Aurora A D274N 2 nM-1.5 μM) into labelled peptide or display protein; 10 mM HEPES pH 7.4, 500 mM NaCl, 1 mM DTT, 0.05% P20; room temperature; 1:1 model. (In general: Polarisation of emitted light reports the rotation of a fluorescent probe.)

In experiment [10] the target is Fluorescein-CK2β_((186–200)) peptide (human) (UniProt P67870). The experiment is described as above.
For experiment [11], the target named is synthetic linear CK2β_((186–200)) peptide with C-terminal Gly-Cys (human) (UniProt P67870). The experiment is described as follows: SPR; Biacore T100, CM5, peptides or cRAD display proteins immobilised through their cysteine (240-400 RU), kinase as analyte 2.5 nM-2.5 μM, 25°C, 10 mM HEPES pH 7.4, 500 mM NaCl, 0.05% P20; 1:1 steady-state affinity model; CK2α data analysed at 200 s post-injection. On the technique in general: Surface plasmon resonance follows binding to a sensor surface in real time, without labels.

The target in experiment [12] is CK2α kinase (human) (UniProt P68400). The experiment is described as follows: SEC; analytical Superdex 75 5/150, 20 mM HEPES pH 7.5, 500 mM NaCl; single proteins and equimolar mixture; fractions checked by SDS-PAGE.
Experiment [13] has the same target. The experiment is described as follows: AUC; sedimentation velocity, absorbance at 280 nm, 50 000 rpm, 20°C, 20 mM HEPES pH 7.5, 500 mM NaCl; single proteins and mixtures (5 μM each CK2α and RAD-CK2β; 10 μM each Aurora A D274N and RAD-TPX2).
The target is the same in experiment [14]. The experiment is described as follows: ITC; itc200, 25°C, 10 mM HEPES pH 7.4, 500 mM NaCl, 0.05% P20; 50 μM titrant into 5 μM Aurora A D274N, 100 μM CK2β peptide or RAD-CK2β into 10 μM CK2α; single-site model.
Experiment [15] concerns the target Aurora A_(D274N) kinase domain (human) (UniProt O14965). Described as above.
Experiment [16] concerns the target Aurora A wild-type kinase domain (untagged) (human). The experiment is described as follows: fluorescence polarisation; fluorescence anisotropy competition: 10 nM Alexa Fluor 488-TPX2 peptide and 50 nM Aurora A wild type, RAD-TPX2 variants as competitors 195 nM-25 μM, 25°C, HEPES pH 7.4, 0.1 M Mg(CH3COO)2, 100 mM NaCl, 1 mM ATP, 1 mM DTT, 0.01% P20; Ki from the equation of Wang (1995), given as KD in Table II.

Where only a bound is given, the exact number is not on record here.

Chain of CK2α kinase (human) (P68400 2-329): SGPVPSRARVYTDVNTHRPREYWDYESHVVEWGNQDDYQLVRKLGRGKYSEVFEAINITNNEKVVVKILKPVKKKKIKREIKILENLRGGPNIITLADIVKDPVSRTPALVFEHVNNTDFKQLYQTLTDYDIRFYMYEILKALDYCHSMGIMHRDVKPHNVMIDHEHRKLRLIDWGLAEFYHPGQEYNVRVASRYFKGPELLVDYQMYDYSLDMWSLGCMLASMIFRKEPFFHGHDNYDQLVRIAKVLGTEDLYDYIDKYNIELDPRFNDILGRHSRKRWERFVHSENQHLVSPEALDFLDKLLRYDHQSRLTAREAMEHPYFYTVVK
Chain of CK2α kinase (P68400 2-329): as above
Chain of Aurora A wild-type kinase domain (untagged) (human) (O14965 133-383): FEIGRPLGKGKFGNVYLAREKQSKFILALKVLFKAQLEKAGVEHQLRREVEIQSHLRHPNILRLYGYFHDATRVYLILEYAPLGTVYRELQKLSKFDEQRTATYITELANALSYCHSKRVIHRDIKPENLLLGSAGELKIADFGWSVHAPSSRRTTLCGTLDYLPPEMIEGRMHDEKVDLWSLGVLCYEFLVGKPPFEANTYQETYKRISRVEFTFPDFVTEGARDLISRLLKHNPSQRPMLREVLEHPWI
Chain of Aurora A_(D274N) kinase domain (human) (O14965 122-403 D274N): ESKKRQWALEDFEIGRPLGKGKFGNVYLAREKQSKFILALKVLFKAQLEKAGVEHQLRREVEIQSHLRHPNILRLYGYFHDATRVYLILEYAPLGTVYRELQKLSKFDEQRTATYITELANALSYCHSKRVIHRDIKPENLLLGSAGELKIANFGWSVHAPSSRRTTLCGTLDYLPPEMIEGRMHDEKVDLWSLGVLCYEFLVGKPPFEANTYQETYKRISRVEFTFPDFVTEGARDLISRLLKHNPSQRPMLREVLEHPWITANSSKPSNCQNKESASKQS

The Kd is the concentration at which binding is half-saturated. A lower Kd goes with a tighter complex. Regarding “Aurora A wild-type kinase domain (untagged) (domain or fragment)”, the Kd in experiment [1] stood at 11000 nM; in experiment [2] it was 2800 nM; in [3], 1100 nM; in [4], 1100 nM; in [5], 870 nM; in [6] it was 46 nM. For the same substance, the Kd in experiment [7] was found to be 820 nM; in experiment [8] it was 840 nM. As for “CK2α kinase (from UniProt P68400 2-329) (enzyme)”, the Kd in [9] was determined as 139 nM; in experiment [10], 348 nM; in experiment [11], 407 nM. Broadly, the stoichiometry N is the number of molecules, sites or subunits per partner or assembly. In the case of “RAD-CK2β_((186–200)) display protein (as used in AUC and SEC) (from UniProt O74036 108-287; P67870 186-200; O74036 302-349)”, the stoichiometry N in the experiment with CK2α kinase (human) [12] and with CK2α kinase (human) [13] was 1 each time.

“cRAD-CK2β_((186–200)) display protein (from UniProt O74036 108-287; P67870 186-200; O74036 302-349)” came in with a Kd with CK2α kinase (human) [14] of 140 nM. Regarding “cRAD-TPX2_((7–43)) display protein (from UniProt O74036 108-287; O74036 302-349)”, the Kd in [15] worked out at 147 nM. As for “double His-tagged RAD-TPX2_((7–43)) D11A (from UniProt O74036 108-287; Q9ULW0 7-43; O74036 302-349)”, the Kd in experiment [16] is more than 3200 nM.

Take “double His-tagged RAD-TPX2_((7–43)) F16A (from UniProt O74036 108-287; Q9ULW0 7-43; O74036 302-349)”: the Kd in experiment [16] came out at 300 nM. “double His-tagged RAD-TPX2_((7–43)) F19A (from UniProt O74036 108-287; Q9ULW0 7-43; O74036 302-349)”: the dissociation constant Kd in experiment [16] was determined as 1770 nM. In experiment [16], “double His-tagged RAD-TPX2_((7–43)) F35A (from UniProt O74036 108-287; Q9ULW0 7-43; O74036 302-349)” gave a Kd of 1110 nM.

Take “double His-tagged RAD-TPX2_((7–43)) W34A (from UniProt O74036 108-287; Q9ULW0 7-43; O74036 302-349)”: the Kd in experiment [16] worked out at 1170 nM.

Turning to “double His-tagged RAD-TPX2_((7–43)) Y8A (from UniProt O74036 108-287; Q9ULW0 7-43; O74036 302-349)”, in experiment [16], the Kd was more than 3200 nM.

As for “double His-tagged RAD-TPX2_((7–43)) Y10A (from UniProt O74036 108-287; Q9ULW0 7-43; O74036 302-349)”, the Kd in experiment [16] is more than 3200 nM. Same read-out and setting: the same measure for “double His-tagged RAD-TPX2_((7–43)), wild-type TPX2 sequence (from UniProt O74036 108-287; O74036 302-349)”: 2 nM.

Take “synthetic linear CK2β_((186–200)) peptide (from UniProt P67870 186-200)”: in the experiment with CK2α kinase (human) [14], the Kd was determined as 138 nM.
